The record followed here is patent US20230416365A1 (Hoffmann-La Roche, published 2023).

Assay [1] concerns the target T1, biotinylated huCD28-Fc (dimeric CD28-Fc construct with a monovalent biotinylated avi-tag) (human, UniProt P10747 19-152, biotinylated at the C-terminal avi tag).
T1 construct: not shown: hum IgG1 Fc fragment with hole and PG-LALA mutations; hum IgG1 Fc fragment with knob and PG-LALA mutations
Nature of the assay: SPR, ProteOn XPR36, huCD28-Fc on NLC chip, bispecific as analyte.

Assay [2] deals with T2, human CD28 on CHO cells (parental cell line CHO-k1 ATCC #CCL-61, modified to stably overexpress human CD28) (human, UniProt P10747 19-220).
T2 construct: also called hu CD28; CHO-hCD28
Nature of the assay: binding to CHO cells expressing human CD28 (by the table's title).

For assay [3], the target named is human FAP on 3T3-huFAP cells (clone 19) (human, UniProt Q12884 1-760). In words: flow cytometry on 3T3-huFAP cells, FAP-CD28 1+1 constructs, MFI (PE).
Assay [4] addresses T2, human CD28 on CHO cells (parental cell …). Nature of the assay: flow cytometry on CHO cells stably expressing human CD28, monovalent one-armed IgG from supernatant, MFI (PE).
Assay [5] has the same target. Described as above. This is another data set of the same source.

Read-outs that look alike come from different tables or passages of the source.

B1: FAP (4B9) - CD28 (CD28(SA)_Variant 16) 1+1 (bispecific antibody, human IgG1, kappa, L234A L235A)
heavy 1: EIVLTQSPGTLSLSPGERATLSCRASQSVTSSYLAWYQQKPGQAPRLLINVGSRRATGIPDRFSGSGSGTDFTLTISRLEPEDFAVYYCQQGIMLPPTFGQGTKVEIKSSASTKGPSVFPLAPSSKSTSGGTAALGCLVKDYFPEPVTVSWNSGALTSGVHTFPAVLQSSGLYSLSSVVTVPSSSLGTQTYICNVNHKPSNTKVDKKVEPKSCDKTHTCPPCPAPEAAGGPSVFLFPPKPKDTLMISRTPEVTCVVVDVSHEDPEVKFNWYVDGVEVHNAKTKPREEQYNSTYRVVSVLTVLHQDWLNGKEYKCKVSNKALGAPIEKTISKAKGQPREPQVCTLPPSRDELTKNQVSLSCAVKGFYPSDIAVEWESNGQPENNYKTTPPVLDSDGSFFLVSKLTVDKSRWQQGNVFSCSVMHEALHNHYTQKSLSLSP
light 1: EVQLLESGGGLVQPGGSLRLSCAASGFTFSSYAMSWVRQAPGKGLEWVSAIIGSGASTYYADSVKGRFTISRDNSKNTLYLQMNSLRAEDTAVYYCAKGWFGGFNYWGQGTLVTVSSASVAAPSVFIFPPSDEQLKSGTASVVCLLNNFYPREAKVQWKVDNALQSGNSQESVTEQDSKDSTYSLSSTLTLSKADYEKHKVYACEVTHQGLSSPVTKSFNRGEC
heavy 2: not shown
light 2: not shown
notes: huIgG1 PG-LALA CrossFab 1+1; also called P1AE3135
Turning to B1, in assay [1], the affinity, expressed as Kd, was 5.3 nM; the koff (in general, a measure of how fast the partners let go of each other) was 0.000994 s⁻¹; the kon (usually the rate constant with which the complex forms) was 187000 M⁻¹ s⁻¹. Also, in assay [2], the Kd – broadly, the concentration at which binding is half-saturated – was 5.3 nM. Also, the binding result in assay [3] is reported as “binds”.

B2: FAP (4B9) - CD28 (CD28(SA)_Variant 11) 1+1 (bispecific antibody, human IgG1, kappa, L234A L235A)
heavy 1: EIVLTQSPGTLSLSPGERATLSCRASQSVTSSYLAWYQQKPGQAPRLLINVGSRRATGIPDRFSGSGSGTDFTLTISRLEPEDFAVYYCQQGIMLPPTFGQGTKVEIKSSASTKGPSVFPLAPSSKSTSGGTAALGCLVKDYFPEPVTVSWNSGALTSGVHTFPAVLQSSGLYSLSSVVTVPSSSLGTQTYICNVNHKPSNTKVDKKVEPKSCDKTHTCPPCPAPEAAGGPSVFLFPPKPKDTLMISRTPEVTCVVVDVSHEDPEVKFNWYVDGVEVHNAKTKPREEQYNSTYRVVSVLTVLHQDWLNGKEYKCKVSNKALGAPIEKTISKAKGQPREPQVCTLPPSRDELTKNQVSLSCAVKGFYPSDIAVEWESNGQPENNYKTTPPVLDSDGSFFLVSKLTVDKSRWQQGNVFSCSVMHEALHNHYTQKSLSLSP
light 1: EVQLLESGGGLVQPGGSLRLSCAASGFTFSSYAMSWVRQAPGKGLEWVSAIIGSGASTYYADSVKGRFTISRDNSKNTLYLQMNSLRAEDTAVYYCAKGWFGGFNYWGQGTLVTVSSASVAAPSVFIFPPSDEQLKSGTASVVCLLNNFYPREAKVQWKVDNALQSGNSQESVTEQDSKDSTYSLSSTLTLSKADYEKHKVYACEVTHQGLSSPVTKSFNRGEC
heavy 2: not shown
light 2: not shown
notes: huIgG1 PG-LALA CrossFab 1+1; also called P1AE3132
B2: in assay [1], binding was characterised by a dissociation constant (Kd) of 12.5 nM, the koff was 0.00287 s⁻¹ and the kon amounted to 230000 M⁻¹ s⁻¹. Moreover, the Kd in assay [2] was 12.5 nM. Besides, the binding result in assay [3] is recorded as “binds”.

B3: CD28(SA)_variant_12 (antibody, human IgG1, kappa, L234A L235A)
heavy: not shown
light: DIQMTQSPSSLSASVGDRVTITCRASQNIYVWLNWYQQKPGKAPKLLIYKASNLYSGVPSRFSGSRSGTDFTLTISSLQPEDFATYYCQQGQTYPYTFGQGTKLEIKRTVAAPSVFIFPPSDRKLKSGTASVVCLLNNFYPREAKVQWKVDNALQSGNSQESVTEQDSKDSTYSLSSTLTLSKADYEKHKVYACEVTHQGLSSPVTKSFNRGEC
chain: DKTHTCPPCPAPEAAGGPSVFLFPPKPKDTLMISRTPEVTCVVVDVSHEDPEVKFNWYVDGVEVHNAKTKPREEQYNSTYRVVSVLTVLHQDWLNGKEYKCKVSNKALGAPIEKTISKAKGQPREPQVCTLPPSRDELTKNQVSLSCAVKGFYPSDIAVEWESNGQPENNYKTTPPVLDSDGSFFLVSKLTVDKSRWQQGNVFSCSVMHEALHNRFTQKSLSLSP
notes: monovalent one-armed huIgG1 PG-LALA; from supernatant; also called P1AE3068
For the molecule B3, the binding result in assay [4] is reported as “binds”.

B4: CD28(SA)_variant_30 (antibody, human IgG1, kappa, L234A L235A)
heavy: not shown
light: DIQMTQSPSSLSASVGDRVTITCRASQNIYVWLNWYQQKPGKAPKLLIYKASNLYSGVPSRFSGSRSGTDFTLTISSLQPEDFATYYCQQGQTYPYTFGQGTKLEIKRTVAAPSVFIFPPSDRKLKSGTASVVCLLNNFYPREAKVQWKVDNALQSGNSQESVTEQDSKDSTYSLSSTLTLSKADYEKHKVYACEVTHQGLSSPVTKSFNRGEC
chain: DKTHTCPPCPAPEAAGGPSVFLFPPKPKDTLMISRTPEVTCVVVDVSHEDPEVKFNWYVDGVEVHNAKTKPREEQYNSTYRVVSVLTVLHQDWLNGKEYKCKVSNKALGAPIEKTISKAKGQPREPQVCTLPPSRDELTKNQVSLSCAVKGFYPSDIAVEWESNGQPENNYKTTPPVLDSDGSFFLVSKLTVDKSRWQQGNVFSCSVMHEALHNRFTQKSLSLSP
notes: monovalent one-armed huIgG1 PG-LALA; from supernatant; also called P1AE3086
As for B4, in assay [5], the binding result was “binds”.

B5: CD28(SA)_variant_27 (antibody, human IgG1, kappa, L234A L235A)
heavy: not shown
light: not shown
chain: DKTHTCPPCPAPEAAGGPSVFLFPPKPKDTLMISRTPEVTCVVVDVSHEDPEVKFNWYVDGVEVHNAKTKPREEQYNSTYRVVSVLTVLHQDWLNGKEYKCKVSNKALGAPIEKTISKAKGQPREPQVCTLPPSRDELTKNQVSLSCAVKGFYPSDIAVEWESNGQPENNYKTTPPVLDSDGSFFLVSKLTVDKSRWQQGNVFSCSVMHEALHNRFTQKSLSLSP
notes: monovalent one-armed huIgG1 PG-LALA; from supernatant; also called P1AE3083
On to B5, for which the binding result in assay [5] is reported as “binds”.

B6: CD28(SA)_variant_16 (antibody, human IgG1, kappa, L234A L235A)
heavy: not shown
light: not shown
chain: DKTHTCPPCPAPEAAGGPSVFLFPPKPKDTLMISRTPEVTCVVVDVSHEDPEVKFNWYVDGVEVHNAKTKPREEQYNSTYRVVSVLTVLHQDWLNGKEYKCKVSNKALGAPIEKTISKAKGQPREPQVCTLPPSRDELTKNQVSLSCAVKGFYPSDIAVEWESNGQPENNYKTTPPVLDSDGSFFLVSKLTVDKSRWQQGNVFSCSVMHEALHNRFTQKSLSLSP
notes: monovalent one-armed huIgG1 PG-LALA; from supernatant; also called P1AE3072
Take B6: the binding result in assay [4] was “binds”.

B7: CD28(SA)_variant_13 (antibody, human IgG1, kappa, L234A L235A)
heavy: not shown
light: not shown
chain: DKTHTCPPCPAPEAAGGPSVFLFPPKPKDTLMISRTPEVTCVVVDVSHEDPEVKFNWYVDGVEVHNAKTKPREEQYNSTYRVVSVLTVLHQDWLNGKEYKCKVSNKALGAPIEKTISKAKGQPREPQVCTLPPSRDELTKNQVSLSCAVKGFYPSDIAVEWESNGQPENNYKTTPPVLDSDGSFFLVSKLTVDKSRWQQGNVFSCSVMHEALHNRFTQKSLSLSP
notes: monovalent one-armed huIgG1 PG-LALA; from supernatant; also called P1AE3069
Take B7: the binding result in assay [4] is reported as “binds”.

B8: CD28(SA)_variant_31 (antibody, human IgG1, kappa, L234A L235A)
heavy: not shown
light: not shown
chain: DKTHTCPPCPAPEAAGGPSVFLFPPKPKDTLMISRTPEVTCVVVDVSHEDPEVKFNWYVDGVEVHNAKTKPREEQYNSTYRVVSVLTVLHQDWLNGKEYKCKVSNKALGAPIEKTISKAKGQPREPQVCTLPPSRDELTKNQVSLSCAVKGFYPSDIAVEWESNGQPENNYKTTPPVLDSDGSFFLVSKLTVDKSRWQQGNVFSCSVMHEALHNRFTQKSLSLSP
notes: monovalent one-armed huIgG1 PG-LALA; from supernatant; also called P1AE3087
Regarding B8, the binding result in assay [5] is given as “binds”.

B9: CD28(SA)_variant_26 (antibody, human IgG1, kappa, L234A L235A)
heavy: not shown
light: not shown
chain: DKTHTCPPCPAPEAAGGPSVFLFPPKPKDTLMISRTPEVTCVVVDVSHEDPEVKFNWYVDGVEVHNAKTKPREEQYNSTYRVVSVLTVLHQDWLNGKEYKCKVSNKALGAPIEKTISKAKGQPREPQVCTLPPSRDELTKNQVSLSCAVKGFYPSDIAVEWESNGQPENNYKTTPPVLDSDGSFFLVSKLTVDKSRWQQGNVFSCSVMHEALHNRFTQKSLSLSP
notes: monovalent one-armed huIgG1 PG-LALA; from supernatant; also called P1AE3082
As to B9, the binding result in assay [5] is recorded as “binds”.

B10: CD28(SA)_variant_15 (antibody, human IgG1, kappa, L234A L235A)
heavy: not shown
light: not shown
chain: DKTHTCPPCPAPEAAGGPSVFLFPPKPKDTLMISRTPEVTCVVVDVSHEDPEVKFNWYVDGVEVHNAKTKPREEQYNSTYRVVSVLTVLHQDWLNGKEYKCKVSNKALGAPIEKTISKAKGQPREPQVCTLPPSRDELTKNQVSLSCAVKGFYPSDIAVEWESNGQPENNYKTTPPVLDSDGSFFLVSKLTVDKSRWQQGNVFSCSVMHEALHNRFTQKSLSLSP
notes: monovalent one-armed huIgG1 PG-LALA; from supernatant; also called P1AE3071
For the molecule B10, in assay [4], the binding result is recorded as “binds”.

B11: CD28(SA)_variant_19 (antibody, human IgG1, kappa, L234A L235A)
heavy: not shown
light: not shown
chain: DKTHTCPPCPAPEAAGGPSVFLFPPKPKDTLMISRTPEVTCVVVDVSHEDPEVKFNWYVDGVEVHNAKTKPREEQYNSTYRVVSVLTVLHQDWLNGKEYKCKVSNKALGAPIEKTISKAKGQPREPQVCTLPPSRDELTKNQVSLSCAVKGFYPSDIAVEWESNGQPENNYKTTPPVLDSDGSFFLVSKLTVDKSRWQQGNVFSCSVMHEALHNRFTQKSLSLSP
notes: monovalent one-armed huIgG1 PG-LALA; from supernatant; also called P1AE3075
Turning to B11, in assay [4], the binding result is recorded as “binds”.

B12: CD28(SA)_variant_29 (antibody, human IgG1, kappa, L234A L235A)
heavy: not shown
light: not shown
chain: DKTHTCPPCPAPEAAGGPSVFLFPPKPKDTLMISRTPEVTCVVVDVSHEDPEVKFNWYVDGVEVHNAKTKPREEQYNSTYRVVSVLTVLHQDWLNGKEYKCKVSNKALGAPIEKTISKAKGQPREPQVCTLPPSRDELTKNQVSLSCAVKGFYPSDIAVEWESNGQPENNYKTTPPVLDSDGSFFLVSKLTVDKSRWQQGNVFSCSVMHEALHNRFTQKSLSLSP
notes: monovalent one-armed huIgG1 PG-LALA; from supernatant; also called P1AE3085
Regarding B12, the binding result in assay [5] is “binds”.

B13: CD28(SA)_variant_25 (antibody, human IgG1, kappa, L234A L235A)
heavy: not shown
light: not shown
chain: DKTHTCPPCPAPEAAGGPSVFLFPPKPKDTLMISRTPEVTCVVVDVSHEDPEVKFNWYVDGVEVHNAKTKPREEQYNSTYRVVSVLTVLHQDWLNGKEYKCKVSNKALGAPIEKTISKAKGQPREPQVCTLPPSRDELTKNQVSLSCAVKGFYPSDIAVEWESNGQPENNYKTTPPVLDSDGSFFLVSKLTVDKSRWQQGNVFSCSVMHEALHNRFTQKSLSLSP
notes: monovalent one-armed huIgG1 PG-LALA; from supernatant; also called P1AE3081
For the molecule B13, in assay [5], the binding result was “binds”.

B14: CD28(SA)_variant_17 (antibody, human IgG1, kappa, L234A L235A)
heavy: not shown
light: not shown
chain: DKTHTCPPCPAPEAAGGPSVFLFPPKPKDTLMISRTPEVTCVVVDVSHEDPEVKFNWYVDGVEVHNAKTKPREEQYNSTYRVVSVLTVLHQDWLNGKEYKCKVSNKALGAPIEKTISKAKGQPREPQVCTLPPSRDELTKNQVSLSCAVKGFYPSDIAVEWESNGQPENNYKTTPPVLDSDGSFFLVSKLTVDKSRWQQGNVFSCSVMHEALHNRFTQKSLSLSP
notes: monovalent one-armed huIgG1 PG-LALA; from supernatant; also called P1AE3073
On to B14, for which, in assay [4], the binding result is listed as “binds”.
